Data on six molecules can be found in PMC3605791 (Nature structural & molecular biology, 2012).

The target of assay [1] is VAMP7 longin domain (Mus musculus) (UniProt P70280). The settings on record: cited from earlier work.
Assay [2] addresses T1, Varp(658–921)His6 (human, UniProt Q96NW4 658-921). Nature of the assay: pull-down.
Assay [3] addresses T1, Varp(658–921)His6. Put plainly: ITC. (In general: Isothermal titration calorimetry measures the heat released or taken up as one component is titrated into another.)

T1 sequence (Q96NW4 658-921): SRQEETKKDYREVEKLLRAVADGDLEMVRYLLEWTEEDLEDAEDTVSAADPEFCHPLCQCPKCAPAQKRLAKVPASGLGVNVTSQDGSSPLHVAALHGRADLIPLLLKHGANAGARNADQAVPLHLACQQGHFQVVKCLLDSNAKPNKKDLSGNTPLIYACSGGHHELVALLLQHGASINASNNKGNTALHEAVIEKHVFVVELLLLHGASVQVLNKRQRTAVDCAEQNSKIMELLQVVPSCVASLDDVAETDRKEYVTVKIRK

Usually Kd stands for the free concentration of one partner at which half of the binding sites on the other are occupied at equilibrium, for simple one-to-one binding. As for Hrb (from UniProt P52594), in assay [1], the Kd is 10 µM.

Take “Varp (construct not stated, KD with Rab38:GTP or Rab32:GTP) (from UniProt Q96NW4 1-1050) (natural protein)”: the Kd in the assay with Rab38:GTP or Rab32:GTP was in the range of 2 to 5 µM.

B1: GSTVAMP7 residues 1–160 (domain or fragment)
chain: MAILFAVVARGTTILAKHAWCGGNFLEVTEQILAKIPSENNKLTYSHGNYLFHYICQDRIVYLCITDDDFERSRAFSFLNEVKKRFQTTYGSRAQTALPYAMNSEFSSVLAAQLKHHSENKSLDKVMETQAQVDELKGIMVRNIDLVAQRGERLELLIDK
With B1, the binding result in the assay with Varp(658–921)His6 [2] was “binds”.

B2: VAMP7 R72A (domain or fragment)
chain: MAILFAVVARGTTILAKHAWCGGNFLEVTEQILAKIPSENNKLTYSHGNYLFHYICQDRIVYLCITDDDFEASRAFSFLNEVKKRFQTTYGSRAQTALPYAMNSEFSSVLAAQLKHHSENKSLDKVMETQAQVDELKGIMVRNIDLVAQRGERLELLIDKTENLVDSSVTFKTTSRNLARAMCMKNIK
For the molecule B2, the dissociation constant Kd with Varp(658–921)His6 [3] is greater than 300 µM.

B3: VAMP7 CD (1–188) (domain or fragment)
chain: MAILFAVVARGTTILAKHAWCGGNFLEVTEQILAKIPSENNKLTYSHGNYLFHYICQDRIVYLCITDDDFERSRAFSFLNEVKKRFQTTYGSRAQTALPYAMNSEFSSVLAAQLKHHSENKSLDKVMETQAQVDELKGIMVRNIDLVAQRGERLELLIDKTENLVDSSVTFKTTSRNLARAMCMKNIK
B3 showed a Kd with Varp(658–921)His6 [3] of 2.3 µM.

B4: VAMP7 D69A E71F S73D (domain or fragment)
chain: MAILFAVVARGTTILAKHAWCGGNFLEVTEQILAKIPSENNKLTYSHGNYLFHYICQDRIVYLCITDDAFFRDRAFSFLNEVKKRFQTTYGSRAQTALPYAMNSEFSSVLAAQLKHHSENKSLDKVMETQAQVDELKGIMVRNIDLVAQRGERLELLIDKTENLVDSSVTFKTTSRNLARAMCMKNIK
Take B4: in the assay with Varp(658–921)His6 [3], the Kd was greater than 300 µM.
